According to publication PMC7101349, “Synthetic antibodies against BRIL as universal fiducial marks for single−particle cryoEM structure determination of membrane proteins” (Nature Communications, 2020):

Tests used:
Settings in all cases: both partners purified
His10-BRIL = target: T1, His10-BRIL (Escherichia coli (engineered cytochrome …, stabilised)); assay: SPR; His10-BRIL immobilised on a nitrilotriacetic acid sensor chip via the N-terminal His10 tag; 2-fold dilution series of sABs at 30 μl/min; 20 °C; BIACORE 3000; 1:1 interaction model
T1 construct: BRIL, an engineered variant of apocytochrome b562; Immobilised by its N-terminal His10 tag for SPR; also called wt BRIL; source: E. coli BL21 (DE3), purified (Ni-NTA); not shown: His10, N-terminal, kept

[1] = target: T2, BRIL-AAA-KcsA (construct 2) (Escherichia coli (engineered cytochrome …, chimera)); assay: SEC; analytical SEC (aSEC): BRIL-fused targets (in detergent, nanodiscs or amphipols) mixed with 1.2–1.5-fold molar excess of sAB, 30 min on ice; Superdex 200 Increase or Superose 6 Increase; retention volume and gel electrophoresis
T2 construct: BRIL, an engineered variant of apocytochrome b562, in place of the N-terminal helix of KcsA; helical linker; potassium channel KcsA; the N-terminal helix (residues 1-23) replaced by BRIL and linker; also called three residues (-AAA-) linker construct; source: E. coli BL21(DE3)plysS, purified (Talon, SEC) in DDM

[2] = target: T3, BRIL-AAAA-KcsA (construct 3, 1 turn) (Escherichia coli (engineered cytochrome …, chimera)); assay: as above
T3 construct: BRIL, an engineered variant of apocytochrome b562, in place of the N-terminal helix of KcsA; helical linker, 1 turn; potassium channel KcsA; the N-terminal helix (residues 1-23) replaced by BRIL and linker; also called four residues or 1 turn (-AAAA-) linker construct; source: E. coli BL21(DE3)plysS, purified (Talon, SEC) in DDM

[3] = target: T4, BRIL-AAAAA-KcsA (construct 4) (Escherichia coli (engineered cytochrome …, chimera)); assay: as above
T4 construct: BRIL, an engineered variant of apocytochrome b562, in place of the N-terminal helix of KcsA; helical linker; potassium channel KcsA; the N-terminal helix (residues 1-23) replaced by BRIL and linker; also called five residues (-AAAAA-) linker construct; source: E. coli BL21(DE3)plysS, purified (Talon, SEC) in DDM

[4] = target: T5, BRIL-AARAAA-KcsA (construct 5) (Escherichia coli (engineered cytochrome …, chimera)); assay: as above
T5 construct: BRIL, an engineered variant of apocytochrome b562, in place of the N-terminal helix of KcsA; helical linker; potassium channel KcsA; the N-terminal helix (residues 1-23) replaced by BRIL and linker; also called six residues (-AARAAA-) linker construct; source: E. coli BL21(DE3)plysS, purified (Talon, SEC) in DDM

[5] = target: T6, BRIL-AARAAAA-KcsA (construct 6) (Escherichia coli (engineered cytochrome …, chimera)); assay: as above
T6 construct: BRIL, an engineered variant of apocytochrome b562, in place of the N-terminal helix of KcsA; helical linker; potassium channel KcsA; the N-terminal helix (residues 1-23) replaced by BRIL and linker; also called seven residues (-AARAAAA-) linker construct; source: E. coli BL21(DE3)plysS, purified (Talon, SEC) in DDM

[6] = target: T7, BRIL-2turn-KcsA (construct 7) (Escherichia coli (engineered cytochrome …, chimera)); assay: as above
T7 construct: BRIL, an engineered variant of apocytochrome b562, in place of the N-terminal helix of KcsA; helical linker, 2 turn; potassium channel KcsA; the N-terminal helix (residues 1-23) replaced by BRIL and linker; also called construct with 2-turn linker; source: E. coli BL21(DE3)plysS, purified (Talon, SEC) in DDM

[7] = target: T8, BRIL-3turn-KcsA (construct 8) (Escherichia coli (engineered cytochrome …, chimera)); assay: as above
T8 construct: BRIL, an engineered variant of apocytochrome b562, in place of the N-terminal helix of KcsA; helical linker, 3 turn; potassium channel KcsA; the N-terminal helix (residues 1-23) replaced by BRIL and linker; source: E. coli BL21(DE3)plysS, purified (Talon, SEC) in DDM

B1: sAB24 (Fab, V domains shown)
VH: EVQLVESGGGLVQPGGSLRLSCAASGFNFSSSSIHWVRQAPGKGLEWVAYISSSSGSTSYADSVKGRFTISADTSKNTAYLQMNSLRAEDTAVYYCARWGYWPGEPWWKAFDYWGQGTLVTVSS
VL: DIQMTQSPSSLSASVGDRVTITCRASQSVSSAVAWYQQKPGKAPKLLIYSASSLYSGVPSRFSGSRSGTDFTLTISSLQPEDFATYYCQQYLYYSLVTFGQGTKVEIK
notes: as the heavy chain of m3 (BAG2), with CDR-H1 32-37 FSSSSI in place of VVDFSL; as the light chain of m3 (BAG2); Parent of BAG2; also called wt sAB24; wt sAB; source: E. coli BL21(gold), purified
His10-BRIL
  Kd: ~23 nM

B2: sAB BAG2 (Fab, V domains shown)
VH: EVQLVESGGGLVQPGGSLRLSCAASGFNVVDFSLHWVRQAPGKGLEWVAYISSSSGSTSYADSVKGRFTISADTSKNTAYLQMNSLRAEDTAVYYCARWGYWPGEPWWKAFDYWGQGTLVTVSS
VL: DIQMTQSPSSLSASVGDRVTITCRASQSVSSAVAWYQQKPGKAPKLLIYSASSLYSGVPSRFSGSRSGTDFTLTISSLQPEDFATYYCQQYLYYSLVTFGQGTKVEIK
notes: Fab heavy chain; CDR-H1 residues 32-37 are VVDFSL; Fab light chain; humanized Fab scaffold of phage library E; source: E. coli BL21(gold), purified
His10-BRIL
  Kd: ~0.3 nM
[1]
  stoichiometry N: 4
[2]
  stoichiometry N: 4
[3]
  stoichiometry N: 4
[4]
  stoichiometry N: 4
[5]
  stoichiometry N: 4
[6]
  stoichiometry N: 4
[7]
  stoichiometry N: 4

B3: BAG2 S36A (Fab, V domains shown)
VH: EVQLVESGGGLVQPGGSLRLSCAASGFNVVDFALHWVRQAPGKGLEWVAYISSSSGSTSYADSVKGRFTISADTSKNTAYLQMNSLRAEDTAVYYCARWGYWPGEPWWKAFDYWGQGTLVTVSS
VL: DIQMTQSPSSLSASVGDRVTITCRASQSVSSAVAWYQQKPGKAPKLLIYSASSLYSGVPSRFSGSRSGTDFTLTISSLQPEDFATYYCQQYLYYSLVTFGQGTKVEIK
notes: as the heavy chain of m3 (BAG2) with the stated change in CDR-H1; as the light chain of m3 (BAG2)
His10-BRIL
  Kd: 5.3 nM

B4: BAG2 F35A (Fab, V domains shown)
VH: EVQLVESGGGLVQPGGSLRLSCAASGFNVVDASLHWVRQAPGKGLEWVAYISSSSGSTSYADSVKGRFTISADTSKNTAYLQMNSLRAEDTAVYYCARWGYWPGEPWWKAFDYWGQGTLVTVSS
VL: DIQMTQSPSSLSASVGDRVTITCRASQSVSSAVAWYQQKPGKAPKLLIYSASSLYSGVPSRFSGSRSGTDFTLTISSLQPEDFATYYCQQYLYYSLVTFGQGTKVEIK
notes: as for B3
His10-BRIL
  Kd: 7.6 nM
